Literature values, collected in US20230042670A1, “Hypoparathyroidism Treatment” (Ascendis Pharma Bone Diseases A/S, priority 2020, published 2023).

Legend:
[1] = in vivo
[2] = system: patients with hypoparathyroidism

Substance: PTH(1-84): short acting PTH molecule, approved drug for hypoparathyroidism; PTH 1-84, SEQ ID NO: 1
- half-life [1]: ~3 h
- clinical episodes of hypercalcemia ([2]; on treatment versus placebo, 24 weeks): numerical increase
- clinical episodes of hypocalcemia ([2]; versus placebo, 24 weeks): no significant difference
- urinary calcium excretion ([2]; versus placebo, 24 weeks): no significant difference
- patients achieving the primary endpoint (50% or greater reduction in daily oral calcium and active vitamin D while maintaining serum calcium) ([2]; week 24, 50 μg per day titrated up to 100 μg): 53%
